We go through two molecules from patent US6673587B1, “Histone deacetylase, and uses therefor” (The Salk Institute for Biological Studies, priority 2000, dated 2004).

This assay deals with T1, GAL DBD-SMRT (RD III+IV), pGBT9-hSMRT (1060-1831) (human, UniProt P04386 1-147; Q9Y618 1060-1831).
T1 construct: domain: GAL DBD;range 1060-1831; Bait of the yeast two-hybrid screen and assays in strain Y190; also called SMRT repression domains III and IV; SMRT RD III and IV
Description: yeast two-hybrid, growth on -Trp-Leu-His+40 mM 3-AT plates. How it is done: (Verdel and Khochbin, 1999, supra)). A series of AD-HDAC constructs were generated for interaction assays in yeast. Transformants harboring both plasmids were picked and patched onto nutrient selection plates. Only cells that contain plasmids carrying an interacting partner are able to activate reporter gene HIS3 and therefore are viable in the selection plate -Trp-Leu-His+40 mM 3-AT. […] After three days, two isolated colonies were picked, resuspended in water, and […] were dropped on both -Trp-Leu and -Trp-Leu-His+40 mM 3-AT plates. Pictures were taken after three days.

B1: AD-HDAC1 (deacetylase domain of HDAC1, GAL AD fusion) (enzyme, UniProt Q13547 9-321, looked up, not shown: large carriers)
chain: RKVCYYYDGDVGNYYYGQGHPMKPHRIRMTHNLLLNYGLYRKMEIYRPHKANAEEMTKYHSDDYIKFLRSIRPDNMSEYSKQMQRFNVGEDCPVFDGLFEFCQLSTGGSVASAVKLNKQQTDIAVNWAGGLHHAKKSEASGFCYVNDIVLAILELLKYHQRVLYIDIDIHHGDGVEEAFYTTDRVMTVSFHKYGEYFPGTGDLRDIGAGKGKYYAVNYPLRDGIDDESYEAIFKPVMSKVMEMFQPSAVVLQCGSDSLSGDRLGCFNLTIKGHAKCVEFVKSFNLPMLMLGGGGYTIRNVARCWTYETAVALD
notes: domain: deacetylase domain
Regarding B1, the binding result is listed as “no binding”.

B2: AD-HDAC3 (deacetylase domain of HDAC3, GAL AD fusion) (enzyme, UniProt O15379 3-316, looked up, not shown: large carriers)
chain: KTVAYFYDPDVGNFHYGAGHPMKPHRLALTHSLVLHYGLYKKMIVFKPYQASQHDMCRFHSEDYIDFLQRVSPTNMQGFTKSLNAFNVGDDCPVFPGLFEFCSRYTGASLQGATQLNNKICDIAINWAGGLHHAKKFEASGFCYVNDIVIGILELLKYHPRVLYIDIDIHHGDGVQEAFYLTDRVMTVSFHKYGNYFFPGTGDMYEVGAESGRYYCLNVPLRDGIDDQSYKHLFQPVINQVVDFYQPTCIVLQCGADSLGCDRLGCFNLSIRGHGECVEYVKSFNIPLLVLGGGGYTVRNVARCWTYETSLLVE
notes: domain: deacetylase domain
For the molecule B2, the binding result is “no binding”.
